These results are taken from article PMC4167904.

The series concerns the target T1, p52 (NF-kB2) (human, UniProt Q00653 1-408).
T1 sequence: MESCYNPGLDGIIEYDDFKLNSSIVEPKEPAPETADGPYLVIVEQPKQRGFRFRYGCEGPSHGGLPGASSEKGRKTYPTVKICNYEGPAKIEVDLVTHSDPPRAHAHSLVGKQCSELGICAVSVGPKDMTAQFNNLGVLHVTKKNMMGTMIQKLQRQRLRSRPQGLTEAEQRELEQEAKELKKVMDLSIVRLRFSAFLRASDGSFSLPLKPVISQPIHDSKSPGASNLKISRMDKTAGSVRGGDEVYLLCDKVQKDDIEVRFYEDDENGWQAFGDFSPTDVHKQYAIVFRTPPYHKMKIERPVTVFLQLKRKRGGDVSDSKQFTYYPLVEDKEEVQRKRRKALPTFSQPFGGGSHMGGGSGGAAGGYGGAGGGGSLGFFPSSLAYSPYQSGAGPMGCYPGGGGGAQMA
Briefly: EMSA.

B1: P-selectin kB (A/T) (dsDNA)
DNA 1: TCGACGGAAGGGGGTAACCCCTTGGG
DNA 2: GATCCCCAAGGGGTTACCCCCTTCCG
Regarding B1, the binding result is given as “binds”.
